Measured values: paper PMC8208711

Target: human wild-type full-length CC chemokine receptor 5 (CCR5) (human) (UniProt P51681)

| Ca2+ flux in HEK-CCR5 cells, decrease of Emax against [6P4]CCL5 [%] | Substance |
| --- | --- |
| 30 | [6P4]CCL5 D5A (ligand) |
| 60 | [6P4]CCL5 D5K (ligand) |
